Source: paper PMC8096283 (Nucleic Acids Research, 2020)

B1: HMfA homodimer (Methanothermus fervidus histone HMfA) (natural protein)
chain: not shown
B2: HMfA_(K31A E35A) (natural protein)
chain: not shown
B3: HMfB homodimer (Methanothermus fervidus histone HMfB) (natural protein)
chain: not shown
B4: HMfB_(D14A K30A E34A) (natural protein)
chain: not shown

Target: the molecule itself
Assay: magnetic tweezers force spectroscopy

How did the stacking energy turn out when B1 was run?
Its stacking energy is 1.81 kBT.

For B2, which stacking energy is on record?
Its stacking energy is 1.18 kBT.

With B3 as the protein, how does the stacking energy read?
Its stacking energy is 3.44 kBT.

With B4 as the protein, how does the stacking energy read?
Its stacking energy is 1.07 kBT.
